In assay [1] the target is T1, Pyrobaculum calidifontis crenactin (Pyrobaculum calidifontis, UniProt A3MWN5 1-432). The experiment in a line: SPR; fast phase. Background: In SPR one partner is held on a chip, and binding of the other changes the refractive index at the surface.
The target in assay [2] is T1, Pyrobaculum calidifontis crenactin. In words: SPR; slow phase.
Assay [3] shares this target. In words: SPR; fast phase. This is another data set of the same source.
For assay [4] the target is unchanged. The experiment in a line: SPR; slow phase. This is another data set of the same source.
For assay [5] the target is unchanged. The experiment in a line: SPR.
The target is the same in assay [6]. The experiment in a line: SPR. The source holds these as a separate data set.

The term Kd denotes the concentration at which binding is half-saturated. A higher Kd goes with a looser complex. By koff is commonly meant the first-order rate constant of dissociation.

T1 sequence (A3MWN5 whole entry): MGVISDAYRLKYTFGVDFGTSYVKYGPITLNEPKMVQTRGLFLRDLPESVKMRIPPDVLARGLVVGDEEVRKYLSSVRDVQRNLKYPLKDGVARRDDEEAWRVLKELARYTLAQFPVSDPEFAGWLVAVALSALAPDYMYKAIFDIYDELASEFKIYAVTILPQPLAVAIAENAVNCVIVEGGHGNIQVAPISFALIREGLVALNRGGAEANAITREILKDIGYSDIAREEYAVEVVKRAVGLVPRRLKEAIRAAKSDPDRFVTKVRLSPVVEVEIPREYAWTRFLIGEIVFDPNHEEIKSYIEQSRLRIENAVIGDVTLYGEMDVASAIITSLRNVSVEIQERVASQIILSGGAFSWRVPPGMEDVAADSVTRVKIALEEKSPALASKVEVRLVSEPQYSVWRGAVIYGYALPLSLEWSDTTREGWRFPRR

B1: Pyrobaculum calidifontis arcadin-2 (natural protein)
chain: MDFPKVLLIRHFTEVLGMKYAGEGGEVLWFEEGLNRVAVGIYFTDLYEEAELYKRVGALMGLGASKVFLAVLPDALAFVDPRYFKANGVGLVVVDPAKGVDGVEVKIFARARPAAVEPLKIDAVKAALHEYLASELKRVEESLFEKVRRYVDQRVEEVKRALQAVEEAKRAAPPVQRAAAESAQEPRGGIGENEWVKILRSKR
As for B1, the Kd in assay [1] was 24 nM; in assay [4], 59 nM. Moreover, the off-rate (koff) in assay [2] amounted to 0.0034 s⁻¹; in assay [3] it was 0.019 s⁻¹.

In turn, RGGIGENEWVKILRSKR [arcadin-2 C-terminal peptide (residues 187-203)] showed an off-rate (koff) in assay [5] of 0.019 s⁻¹. For the same molecule, binding in assay [6] was characterised by a dissociation constant (Kd) of 9 nM.
